Positions of bridges follow the written chain, without caps; N, C: chain ends. Non-standard residues stand in square brackets, D forms with d. Groups on a side chain read outwards from the residue. int‑CC7 = mannose-6-phosphonate M6PR ligand; tri‑GalNAc ASGPR ligand = not defined here; Bip = N[C@@H](Cc1ccc(-c2ccccc2)cc1)C(=O)O; NMeF = CN[C@@H](Cc1ccccc1)C(=O)O; Tic = O=C(O)[C@@H]1Cc2ccccc2CN1; int‑CC6 = not defined here; NMeA = CN[C@@H](C)C(=O)O; Sar = CNCC(=O)O
T1: Purified FHR3 with C-terminal biotinylated Avitag (human, UniProt Q02985 19-330, biotin on the C-terminal Avitag)
T1 construct: Immobilised on a NeutrAvidin NLC chip for SPR; also called complement factor H-related protein 3; hFHR3; not shown: C-terminal biotinylated Avitag
T1 sequence (looked up): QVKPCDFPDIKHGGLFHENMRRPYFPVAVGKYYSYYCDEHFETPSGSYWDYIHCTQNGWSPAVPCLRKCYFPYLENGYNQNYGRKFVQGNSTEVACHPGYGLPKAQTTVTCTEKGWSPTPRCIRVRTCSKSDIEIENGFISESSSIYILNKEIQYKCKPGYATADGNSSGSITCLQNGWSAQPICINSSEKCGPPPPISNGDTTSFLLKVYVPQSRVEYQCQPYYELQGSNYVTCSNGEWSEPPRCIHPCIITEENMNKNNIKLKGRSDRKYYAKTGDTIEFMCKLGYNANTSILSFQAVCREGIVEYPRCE

B1: Bifunctional compound (BFC-4) (other)
peptide: {CH2CO}-FVPTT[Bip][NMeA][Bip][NMeA]EAPCGK-NH2
modifications: thioether N-13; not fully specified (residue 15); also: int-DD2 linker joined by two oximes to int-CC7
B2: Bifunctional compound (BFC-8) (other)
peptide: {CH2CO}-FVPTT[Bip][NMeA][Bip][NMeA]EAPCGK([Lys(4-oxopentanoyl)-int‑CC7])-NH2
modifications: thioether N-13; not fully specified; also: further groups not given here
notes: BFC-8 and BFC-9 come from the same reaction of int-DD6 with int-CC7
B3: Bifunctional compound (BFC-9) (other)
peptide: {CH2CO}-FVPTT[Bip][NMeA][Bip][NMeA]EAPCGK([Lys(4-oxopentanoyl)-int‑CC7])-NH2
modifications: thioether N-13; not fully specified; also: further groups not given here
notes: as for B2
B4: Cyclic peptide (C5) (peptide)
peptide: {CH2CO}-FVPTT[Bip][NMeA][Bip][NMeA]EAPCGK(4‑oxopentanoyl)-NH2
modifications: thioether N-13
notes: also called PCSK9 ligand (C5); PCSK9 receptor ligand compound (C5)
B5: Bifunctional compound (BFC-2) (other)
peptide: {CH2CO}-FVPTT[Bip][NMeA][Bip][NMeA]EAPCGK([4‑formylbenzoyl-int‑CC6])-NH2
modifications: thioether N-13; reading uncertain; also: 4-formylbenzoyl joined to int-CC6 as oxime
B6: Cyclic peptide compound (C12) (peptide)
peptide: {CH2CO}-FR[NMeF]SKNY[Sar]RD[Tic]N[NMeF]CG-NH2
modifications: thioether N-14; also: classes: D-residues
notes: Synthetic cyclic peptide with non-natural residues; also called FHR3 receptor ligand compound (C12)
B7: Bifunctional compound (BFC-17) (other)
peptide: {CH2CO}-FR[NMeF]SVNY[Sar]RK([dPEG9 diacid-tri‑GalNAc ASGPR ligand])[Tic]N[NMeF]CG-NH2
modifications: thioether N-14; reading uncertain
B8: Cyclic peptide compound (C13) (peptide)
peptide: {CH2CO}-FK[NMeA]SLHW[NMeA]RPDRCG-NH2
modifications: thioether N-13
SMILES: CC(C)C[C@@H]1NC(=O)[C@H](CO)NC(=O)[C@H](C)N(C)C(=O)[C@H](CCCCN)NC(=O)[C@H](Cc2ccccc2)NC(=O)CSC[C@@H](C(=O)NCC(N)=O)NC(=O)[C@H](CCCNC(=N)N)NC(=O)[C@H](CC(=O)O)NC(=O)[C@@H]2CCCN2C(=O)[C@H](CCCNC(=N)N)NC(=O)[C@H](C)N(C)C(=O)[C@H](Cc2c[nH]c3ccccc23)NC(=O)[C@H](Cc2c[nH]cn2)NC1=O
notes: Synthetic cyclic peptide; also called FHR3 receptor ligand compound (C13)
B9: Bifunctional compound (BFC-14) (other)
peptide: {CH2CO}-FK([dPEG9 diacid-tri‑GalNAc ASGPR ligand])[NMeA]SLHW[NMeA]RPDRCG-NH2
modifications: thioether N-13; reading uncertain
B10: Cyclic peptide compound (C14) (peptide)
peptide: {CH2CO}-FR[NMeF]SVNYKRS[Tic]N[NMeF]CG-NH2
modifications: thioether N-14
SMILES: CC(C)[C@@H]1NC(=O)[C@H](CO)NC(=O)[C@H](Cc2ccccc2)N(C)C(=O)[C@H](CCCNC(=N)N)NC(=O)[C@H](Cc2ccccc2)NC(=O)CSC[C@@H](C(=O)NCC(N)=O)NC(=O)[C@H](Cc2ccccc2)N(C)C(=O)[C@H](CC(N)=O)NC(=O)[C@@H]2Cc3ccccc3CN2C(=O)[C@H](CO)NC(=O)[C@H](CCCNC(=N)N)NC(=O)[C@H](CCCCN)NC(=O)[C@H](Cc2ccc(O)cc2)NC(=O)[C@H](CC(N)=O)NC1=O
notes: Synthetic cyclic peptide; also called FHR3 receptor ligand compound (C14)
B11: Cyclic peptide compound (C15) (peptide)
peptide: {CH2CO}-F[NMeF][NMeA]SLHW[NMeA]RKDRCG-NH2
modifications: thioether N-13
notes: also called FHR3 receptor ligand compound (C15)
B12: Cyclic peptide compound (C16) (peptide)
peptide: {CH2CO}-FR[NMeF]SVNY[Sar]RK[Tic]N[NMeF]CG-NH2
modifications: thioether N-14
SMILES: CC(C)[C@@H]1NC(=O)[C@H](CO)NC(=O)[C@H](Cc2ccccc2)N(C)C(=O)[C@H](CCCNC(=N)N)NC(=O)[C@H](Cc2ccccc2)NC(=O)CSC[C@@H](C(=O)NCC(N)=O)NC(=O)[C@H](Cc2ccccc2)N(C)C(=O)[C@H](CC(N)=O)NC(=O)[C@@H]2Cc3ccccc3CN2C(=O)[C@H](CCCCN)NC(=O)[C@H](CCCNC(=N)N)NC(=O)CN(C)C(=O)[C@H](Cc2ccc(O)cc2)NC(=O)[C@H](CC(N)=O)NC1=O
notes: Synthetic cyclic peptide; also called FHR3 receptor ligand compound (C16)

These binders were tested against T2, M6PR (assay: SPR, no details given; binding is through the mannose phosphonate moiety of the conjugate).
T2 construct: also called mannose-6-phosphate receptor; M6P receptor

Row | Binder | Kd
1 | B1 | 110 nM
2 | B2 | 480 nM
3 | B3 | 170 nM

The binders below were run against T3, Purified recombinant full length human PCSK9 with C-terminal biotinylated Avitag (human, UniProt Q8NBP7 31-692, biotin on the C-terminal Avitag) (assay: SPR, ProteOn XPR36; biotinylated human PCSK9 on NeutrAvidin NLC chip).
T3 construct: also called hPCSK9; proprotein convertase subtilisin/kexin type 9; not shown: C-terminal biotinylated Avitag
T3 sequence (Q8NBP7 31-692): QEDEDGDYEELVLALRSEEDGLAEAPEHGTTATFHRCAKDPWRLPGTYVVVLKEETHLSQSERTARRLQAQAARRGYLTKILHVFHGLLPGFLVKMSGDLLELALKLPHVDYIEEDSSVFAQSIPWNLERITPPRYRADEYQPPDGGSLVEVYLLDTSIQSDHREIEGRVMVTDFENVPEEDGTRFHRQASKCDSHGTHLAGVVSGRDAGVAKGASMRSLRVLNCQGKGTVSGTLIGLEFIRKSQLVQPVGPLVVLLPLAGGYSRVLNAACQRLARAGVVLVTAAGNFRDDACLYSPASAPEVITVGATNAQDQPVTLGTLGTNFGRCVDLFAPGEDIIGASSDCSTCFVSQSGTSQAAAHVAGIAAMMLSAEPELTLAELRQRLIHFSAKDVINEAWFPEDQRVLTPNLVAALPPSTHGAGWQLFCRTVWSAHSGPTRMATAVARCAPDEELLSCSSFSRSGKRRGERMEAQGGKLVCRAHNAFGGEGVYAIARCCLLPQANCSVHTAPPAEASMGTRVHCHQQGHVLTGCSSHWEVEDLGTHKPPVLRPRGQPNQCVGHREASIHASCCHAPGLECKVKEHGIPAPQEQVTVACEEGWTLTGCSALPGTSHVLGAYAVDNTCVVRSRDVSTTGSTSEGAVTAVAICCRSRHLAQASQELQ
Method: SPR was used to obtain the binding data for PCSK9 receptor ligand compound (C5), either alone or as part of the bifunctional compounds (BFC1), respectively.
(§1) SPR Binding experiments were performed on a Proteon XPR36 instrument (Bio-Rad Laboratories). Purified recombinant full length human PCSK9 with C-terminal biotinylated Avitag was used for the assay. Biotinylated human PCSK9 was incubated with fivefold molar excess of bifunctional compound (BFC1) or compound (C₅), and immobilized onto a Neutravidin coated sensor chip. (NLC chip, Bio-Rad Laboratories, Inc). After conditioning the chip by injecting running buffer (20 mM Tris pH7.5, 300 mM NaCl, 25 mM CaCl₂, 2 mM betamercaptoethanol, 2% DMSO and 0.05% Tween-20) at a flow rate of 0.1 mL/min for 240 s, PCSK9 protein was injected at a protein concentration of 0.02 mg/ml in running buffer with fivefold molar excess of bifunctional compound and a flow rate of 0.03 mL/min followed by 4 washes with running buffer with 1 μM of bifunctional compound (0.1 mL/min for 60 seconds each).

Row | Binder | Kd
4 | B4 | 1.2 nM
5 | B5 | 9.2 nM
6 | B1 | 4.1 nM

What follows are binders tested against T2, M6PR (assay: SPR, no details given; binding is through the mannose-6-phosphate moiety of the conjugate).

Row | Binder | Kd
7 | B5 | 7.19 nM

Each binder was assayed against T1, Purified FHR3 with C-terminal … (assay: SPR, ProteOn XPR36; biotinylated FHR3 on NeutrAvidin NLC chip).
Method: SPR was used to obtain the binding data for FHR3 receptor ligands compounds (C12), (C13), (C14), (C15) and (C16), either alone or as part of the bifunctional compounds (BFC13), (BFC14), (BFC15), (BFC16) and (BFC17), respectively.
as §1, with “FHR3” for “recombinant full length human PCSK9”, “FHR3” for “human PCSK9”, “compounds (BFC13), (BFC14), (BFC15), (BFC16)” for “compound (BFC1)”, “(BFC17), or compounds (C12), (C13), (C14), (C15) or (C16),” for “compound (C₅),”, “FHR3” for “PCSK9 protein”

Row | Binder | Kd
8 | B6 | 8 nM
9 | B7 | 55 nM
10 | B8 | 48 nM
11 | B9 | 80 nM
12 | B10 | 162 nM
13 | B11 | 15 nM
14 | B12 | 13 nM

From patent US20230398224A1 (Novartis, published 2023)
